In data set [1] the test system is T1, LugJ (Staphylococcus lugdunensis IVK28), ORF:22db99f4.
T1 sequence: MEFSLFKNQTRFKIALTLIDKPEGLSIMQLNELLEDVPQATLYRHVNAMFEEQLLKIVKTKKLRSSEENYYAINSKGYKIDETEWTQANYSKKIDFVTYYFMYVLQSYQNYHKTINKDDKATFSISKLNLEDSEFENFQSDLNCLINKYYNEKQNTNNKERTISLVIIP
The experiment in a line: EMSA. The settings on record: 10 mM Tris/HCl pH 7.4, 10 mM NaCl (LugJ) or 100 mM NaCl (LugR), 0.1 mg/mL BSA, 1 mM DTT, 1 mM EDTA, 10% glycerol, 30 min at 25 C, 20 ul; 5% native PAGE. On the technique in general: A gel shift assay detects complexes by their altered migration in electrophoresis.

Data set [2] has the same test system. Kind of data set: competition. The settings on record: 10 mM Tris/HCl pH 7.4, 10 mM NaCl (LugJ) or 100 mM NaCl (LugR), 0.1 mg/mL BSA, 1 mM DTT, 1 mM EDTA, 10% glycerol, 30 min at 25 C, 20 ul; 5% native PAGE.
In a further data set the target is T2, LugR (Staphylococcus lugdunensis IVK28, UniProt A0A292DID1 1-196).
T2 sequence: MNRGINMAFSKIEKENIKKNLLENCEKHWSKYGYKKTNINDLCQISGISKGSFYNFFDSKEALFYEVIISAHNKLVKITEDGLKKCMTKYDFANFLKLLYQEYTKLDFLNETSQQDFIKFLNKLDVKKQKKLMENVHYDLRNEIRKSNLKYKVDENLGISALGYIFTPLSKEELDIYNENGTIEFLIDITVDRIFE
The experiment in a line: competition; 2 uM LugR; 50 or 100 ng competitor vs PlugR; 10 mM Tris/HCl pH 7.4, 10 mM NaCl (LugJ) or 100 mM NaCl (LugR), 0.1 mg/mL BSA, 1 mM DTT, 1 mM EDTA, 10% glycerol, 30 min at 25 C, 20 ul; 5% native PAGE. The conditions noted are these: protein: recombinant; tags: 8xHis (N-terminal, pET-28a derived); chain copies: 2; label: none; blunt.

“ACATAACACCTCACTTTATACATAATAATTGATTTTTAAATAAATGTACAGTAACATTATCATTATCAATAATGATAATGGAGGGTGAAAATG (double strand) [PlugI promoter fragment]”: the binding entry in data set [1] is recorded as “binds”.
Regarding “ACATAACACCTCACTTTATACATAATAATTGATTTTTAAATAAATGTACAGTAACATTATCATTATCAATAATGATAATGGAGGGTGAAAATG (double strand) [cold PlugI]”, in data set [2], the binding result is reported as “binds”.

B1: PallugR native (dsDNA)
DNA 1: GATAAAAGTGACTAGAAAAATTTATTTGGTCATAAATGAATAG
DNA 2: CTATTCATTTATGACCAAATAAATTTTTCTAGTCACTTTTATC
For B1, the binding result in the data set with LugR is given as “binds”.

The values are drawn from PMC11980582, “The human microbiome-derived antimicrobial lugdunin self-regulates its biosynthesis by a feed-forward mechanism”.
